Biological target: T1, TREX1 catalytic core (murine) (UniProt Q91XB0)
T1 sequence: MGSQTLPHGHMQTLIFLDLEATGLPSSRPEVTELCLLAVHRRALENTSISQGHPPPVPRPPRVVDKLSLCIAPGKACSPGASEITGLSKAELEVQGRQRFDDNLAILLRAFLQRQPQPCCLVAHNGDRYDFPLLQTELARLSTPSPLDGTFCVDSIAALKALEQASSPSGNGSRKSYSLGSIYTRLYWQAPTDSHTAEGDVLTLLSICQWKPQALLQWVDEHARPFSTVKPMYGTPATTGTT
Test: fluorescence polarization
Details: FP with 5 nM ligand at 25 C (some FPCD at 4 C); buffer for MS2-CP (BB6): 100 mM Tris pH 7.5, 10 mM MgCl2, 80 mM KCl, 0.1 mg/mL BSA; other buffers not in …

GAAGTGCCCGTGACGCGCGCGACGCCAGCCGACGAAGGCGGGACCCAGAGCGCGCGCCGT (double strand) [ds-[F]d(N)60]
Kd: 30 nM

— PMC10293810
